Laboratory results as given in article PMC5115986 (Journal of molecular biology, 2016).
Residue numbers refer to the chain shown, from its start. Names and notes keep the numbering of the source. Each block holds one binder with its values, some of them ahead of it.

Key:
GST-Dbf4 = biological target: T1, GST-Dbf4 (budding yeast, UniProt P32325 1-704); experiment: pull-down
T1 sequence (looked up): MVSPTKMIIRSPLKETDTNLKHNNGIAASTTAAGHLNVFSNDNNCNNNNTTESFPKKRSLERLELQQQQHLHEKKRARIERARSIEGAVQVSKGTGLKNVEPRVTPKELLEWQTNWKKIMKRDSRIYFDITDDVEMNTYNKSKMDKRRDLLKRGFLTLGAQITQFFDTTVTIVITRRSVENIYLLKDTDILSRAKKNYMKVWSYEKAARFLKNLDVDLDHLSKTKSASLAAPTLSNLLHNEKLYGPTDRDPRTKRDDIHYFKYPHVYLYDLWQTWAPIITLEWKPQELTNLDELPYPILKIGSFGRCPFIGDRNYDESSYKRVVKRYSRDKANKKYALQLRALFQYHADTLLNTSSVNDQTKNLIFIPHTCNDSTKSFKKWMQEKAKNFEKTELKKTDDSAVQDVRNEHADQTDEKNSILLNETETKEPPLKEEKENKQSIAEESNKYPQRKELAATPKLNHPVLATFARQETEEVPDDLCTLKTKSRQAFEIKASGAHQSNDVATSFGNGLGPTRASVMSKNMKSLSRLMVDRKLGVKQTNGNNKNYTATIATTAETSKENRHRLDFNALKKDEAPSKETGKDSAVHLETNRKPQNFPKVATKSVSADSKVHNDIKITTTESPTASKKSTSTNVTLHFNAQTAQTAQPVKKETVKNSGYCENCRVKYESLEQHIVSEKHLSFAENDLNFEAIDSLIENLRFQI

GST-Cdc45 = biological target: T2, GST-Cdc45 (budding yeast, UniProt Q08032 1-650); experiment: pull-down
T2 sequence (looked up): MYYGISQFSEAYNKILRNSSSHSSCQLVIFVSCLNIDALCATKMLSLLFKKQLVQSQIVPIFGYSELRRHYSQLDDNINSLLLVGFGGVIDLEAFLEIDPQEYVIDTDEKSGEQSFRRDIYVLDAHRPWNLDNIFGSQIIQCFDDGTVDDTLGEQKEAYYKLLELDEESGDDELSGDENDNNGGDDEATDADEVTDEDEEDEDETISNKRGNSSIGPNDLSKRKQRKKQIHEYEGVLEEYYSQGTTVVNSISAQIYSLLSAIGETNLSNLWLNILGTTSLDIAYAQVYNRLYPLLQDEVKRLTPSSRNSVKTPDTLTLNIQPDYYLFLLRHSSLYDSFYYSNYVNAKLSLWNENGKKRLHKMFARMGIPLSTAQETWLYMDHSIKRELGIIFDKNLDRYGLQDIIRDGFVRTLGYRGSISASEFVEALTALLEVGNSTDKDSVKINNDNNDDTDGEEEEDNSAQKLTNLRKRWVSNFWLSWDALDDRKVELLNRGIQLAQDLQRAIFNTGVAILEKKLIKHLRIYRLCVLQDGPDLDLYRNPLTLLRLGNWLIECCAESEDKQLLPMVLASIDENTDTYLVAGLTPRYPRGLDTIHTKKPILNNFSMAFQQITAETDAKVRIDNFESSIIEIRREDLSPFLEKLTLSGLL

binding result (GST-Dbf4): binds
B1: PKA-Mcm10 (wild-type), radiolabeled (natural protein, Saccharomyces cerevisiae, UniProt P32354 1-571, looked up)
chain: MNDPREILAVDPYNNITSDEEDEQAIARELEFMERKRQALVERLKRKQEFKKPQDPNFEAIEVPQSPTKNRVKVGSHNATQQGTKFEGSNINEVRLSQLQQQPKPPASTTTYFMEKFQNAKKNEDKQIAKFESMMNARVHTFSTDEKKYVPIITNELESFSNLWVKKRYIPEDDLKRALHEIKILRLGKLFAKIRPPKFQEPEYANWATVGLISHKSDIKFTSSEKPVKFFMFTITDFQHTLDVYIFGKKGVERYYNLRLGDVIAILNPEVLPWRPSGRGNFIKSFNLRISHDFKCILEIGSSRDLGWCPIVNKKTHKKCGSPINISLHKCCDYHREVQFRGTSAKRIELNGGYALGAPTKVDSQPSLYKAKGENGFNIIKGTRKRLSEEEERLKKSSHNFTNSNSAKAFFDEKFQNPDMLANLDNKRRKIIETKKSTALSRELGKIMRRRESSGLEDKSVGERQKMKRTTESALQTGLIQRLGFDPTHGKISQVLKSSVSGSEPKNNLLGKKKTVINDLLHYKKEKVILAPSKNEWFKKRSHREEVWQKHFGSKETKETSDGSASDLEII
modifications: 32P label put on the PKA tag by protein kinase A with [gamma-32P]-ATP

binding result (GST-Cdc45): binds
binding result (GST-Dbf4): binds
B2: PKA-Mcm10-m2,3,4 (Mcm10-K216E-N313E-K314E), radiolabeled (natural protein, Saccharomyces cerevisiae, UniProt P32354 1-571, looked up)
chain: B1 chain with K216E, N313E, K314E
modifications: 32P label put on the PKA tag by protein kinase A with [gamma-32P]-ATP
